{"source": "paper PMC3468084", "binders": {"B1": {"name": "dT30 (ssDNA)", "DNA": "TTTTTTTTTTTTTTTTTTTTTTTTTTTTTT"}}, "key": {"[1]": {"molecular_target": "T1, KpDnaB helicase (Klebsiella pneumoniae, UniProt A6TGW0 1-471)", "test": "EMSA; 16.7 uM galangin; apparent Kd; 20 mM HEPES pH 7.0, 100 mM NaCl, 25 C, 30 min, 1.7 nM dT30, no Mg2+ or nucleotide stated; native 8% PAGE in TBE at 4 C"}, "[2]": {"molecular_target": "T1, KpDnaB helicase", "test": "EMSA; 16.7 uM kaempferol; apparent Kd; 20 mM HEPES pH 7.0, 100 mM NaCl, 25 C, 30 min, 1.7 nM dT30, no Mg2+ or nucleotide stated; native 8% PAGE in TBE at 4 C"}, "[3]": {"molecular_target": "T1, KpDnaB helicase", "test": "EMSA; 16.7 uM myricetin; apparent Kd; 20 mM HEPES pH 7.0, 100 mM NaCl, 25 C, 30 min, 1.7 nM dT30, no Mg2+ or nucleotide stated; native 8% PAGE in TBE at 4 C"}, "[4]": {"molecular_target": "T1, KpDnaB helicase", "test": "EMSA; 16.7 uM quercetin; apparent Kd; 20 mM HEPES pH 7.0, 100 mM NaCl, 25 C, 30 min, 1.7 nM dT30, no Mg2+ or nucleotide stated; native 8% PAGE in TBE at 4 C"}, "[5]": {"molecular_target": "T1, KpDnaB helicase", "test": "EMSA; no flavonol; apparent Kd; 20 mM HEPES pH 7.0, 100 mM NaCl, 25 C, 30 min, 1.7 nM dT30, no Mg2+ or nucleotide stated; native 8% PAGE in TBE at 4 C"}}, "data": [{"binder": "B1", "values": [{"measurement": "Kd", "setting": "[1]", "result": "1030 ± 60", "unit": "nM"}, {"measurement": "Kd", "setting": "[2]", "result": "1100 ± 50", "unit": "nM"}, {"measurement": "Kd", "setting": "[3]", "result": "1110 ± 50", "unit": "nM"}, {"measurement": "Kd", "setting": "[4]", "result": "1030 ± 70", "unit": "nM"}, {"measurement": "Kd", "setting": "[5]", "result": "970 ± 70", "unit": "nM"}]}]}
